Data from patent publication US20250283886.

Tests used:
[1] = system: […]{LYS(N3)} peptide-linker conjugate, oligo linker (Table 6 entry 8)
[2] = system: […]{LYS(N3)} peptide-linker conjugate, oligo linker (Table 6 entry 9)
[3] = system: […]{LYS(N3)} peptide-linker conjugate, oligo linker (Table 6 entry 10)
[4] = system: […]{LYS(N3)} peptide-linker conjugate, PEG4 linker (Table 6 entry 11)

Substance: Y. pestis proline iminopeptidase
- Cleaved by PIP [1]: Yes
- Cleaved by PIP [2]: Yes
- Cleaved by PIP [3]: No
- Cleaved by PIP [4]: Yes
